Data published in the supplement of paper PMC9170038.

Key:
MS2 coat protein [1] = assay: apparent KD of MS2 coat protein, switch ON state; designed switch direction (-1 OFF switch, 1 ON switch): 1; higher = weaker reporter binding; details: FMN input: 0 or 200 uM; Eterna round: R93 (includes R88 designs)
Method in brief: (§1)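 Designed RNA switches, transcribed on-chip from Illumina sequencing clusters, were titrated with SNAP-549-labelled MS2 coat protein from 0.7 or 1.5 nM to 3 µM in twofold steps. The solution was 100 mM Tris-HCl pH 7.5, 80 mM KCl, 4 mM MgCl2, with constant ligand or without it. Apparent KD is the median over each design's normalised cluster binding-curve fits.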

MS2 coat protein [2] = assay: apparent KD of MS2 coat protein, switch OFF state (with FMN for OFF switches, without FMN for ON switches); designed switch direction (-1 OFF switch, 1 ON switch): 1; higher = weaker reporter binding; details: FMN input: 0 or 200 uM; Eterna round: R93 (includes R88 designs)
Method in brief: as §1

Sequence | apparent KD of MS2 coat protein (MS2 coat protein [1]) [nM] | apparent KD of MS2 coat protein (MS2 coat protein [2]) [nM]
CCCAUACAUGAGGAUCACCCAUGUUUUAUUAACAGAGGAUAUAUAGGUGAAACAAACAACAUAGAAGGCUGCCCAA [Default title] | 34.2 | 53.2
AAUUCCACUAGCAAGGAUAUCUAAAACGAAACAUGAGGAUCACCCAUGUGACGACCACACGUAUCAGAGAAGGUGCAGGGUGAAU [JR_SS002_Sub307] | 20.5 | 31.9
AUAAUAAAAACACAGGAUAUCCAAAAGAAAACAUGAGGAUCACCCAUGUAAAGAAAAUAAAAAUGGGAGAAGGGUGAAAUAAAUA [Mat - Same State 2 - JL mod - D34] | 37.4 | 42.9
AACGAACAUGAGGAUCACCCAUGUUCCAACAGUUGAGGAUAUGUGGGUGAAAAUAGCACGGCAGAAGGCGAGUGUA [SameState1 Malc#21] | 70.2 | 49.8
GGUACAGCUAGUUAGGAUAUCAGGUGUAAGACAUGAGGAUCACCCAUGUCCUAAGAACAGGUAACUGAGAAGGAACAGGGCGUCC [JR_SS002_Sub415] | 27.3 | 90
UGGAGACAUGAGGAUCACCCAUGUGAGAAGAGGCGAGGAUAUCGAAAAAAAAAAAAAAAACGAGAAGGCGCGAGAU [salish99-SS1-008] | 25.9 | 22.1
GAAAAACAUGAGGAUCACCCAUGUGGAAAUAUGGAAGGAUAUACAAAGACGAGAGUCAAAGUAGAAGGUCUAAAAG [Mat - Same State 1 - Eli mod - D20] | 17.3 | 26.3
AUAAAACAUGAGGAUCACCCAUGUAGACAUAUGGGAGGAUAUACUAGAUCGAAAGAUCUAGUAGAAGGUCUUAAAA [JL Mod of Eli 10] | 205 | 183
AGAAAUAAAAGAGAGGAUAUCCAAAAGAAAACAUGAGGAUCACCCAUGUAAAAGAAAAUAAAAUGGGAGAAGGCUCACAUAAAGA [Topaz 34] | 21.1 | 37.4
AAAUAACAUGAGGAUCACCCAUGUUGCAACGGUAGAGGAUAUGUGGGUGAAAAUAGCAUGGCAGAAGGCUAGUGUA [SameState1 Malc#28] | 172 | 110
GGGAAGAAGAGAGAGGAUAUCCAAAGGAAAACAUGAGGAUCACCCAUGUAAAAGGUAGGAAAUUGGGAGAAGGCUCAAAAGAGAG [salish99-ss2-034] | 20.6 | 40.8
AUGAAUAGCCUCGAGGAUAUCCAGUCAUGCACAUGAGGAUCACCCAUGUAAGAGAGAGUAUAAUGGGAGAAGGCGAGUUCUCGGU [JR_SS002_Sub1705] | 50.5 | 72.2
AAAAGACAUGAGGAUCACCCAUGUAAAAACGUAGGAGGAUAUGUAUGGAAACCAGACUGUACAGAAGGCCUUUGUC [SS1 - 73] | 20 | 19.4
AAAAAACAUGAGGAUCACCCAUGUGCAAAAUUCGCAGGAUAUUCCUCAAUUAAAUGAGAGGAAGAAGGGUGAAAAA [Nob's Hobby 26 - Jieux - Same State 1] | 21.3 | 171
AUAAGACAUGAGGAUCACCCAUGUAUAAGAGCAUGAGGAUAUAUGAAAAGUAAUAGGAGGAUAGAAGGCAUGGUUG [JR_SS001_Sub1219] | 89.7 | 102
GCGGUGCAGGUACAGGAUAUGUUGCUCGUAACAUGAGGAUCACCCAUGUACCUAUGAGAUUAAAUGCAGAAGGGUGCACACCACG [Oneratle] | 47.2 | 574
AAAAGACAUGAGGAUCACCCAUGUGAAAACGUACAAGGAUAUGUGUGGAAACCGUACUAUACAGAAGGUGUCUGUC [SS1 - 87] | 63 | 30.2
AACUAACAUGAGGAUCACCCAUGUUACAGCAGUUGAGGAUAUGUGGGUGAAAAUAGCACGGCAGAAGGCGAGUGUA [SameState1 Malc#23] | 237 | 150
AGAAAUAAACCUCAGGAUAUGGGUAAAUAAACAUGAGGAUCACCCAUGUAAAAGAAAAUAAAAAACCAGAAGGGAGAAAAUAAGA [Designing denovo 1] | 10.4 | 24.1
GGAGCCGGCACUGAGGAUAUUCAUAUUAAAACAUGAGGAUCACCCAUGUAGGCCAGAAGGCCUUGGGAGAAGGCAGGUCGGCUCG [Arinin] | 16.5 | 363
AAUAUACAUGAGGAUCACCCAUGUUUUAAUAACUCAGGAUAUACAGGUGAAAACAGCAUAGUAGAAGGGAGAAAAA [SameState1 Malc#3] | 18.2 | 23.2
AAAAGACAUGAGGAUCACCCAUGUCAAAACGUAGGAGGAUAUGUCUUGAAAAAAGACUUGACAGAAGGCCUGUGUC [SS1 - 54] | 15.1 | 17

Sequence | apparent KD of MS2 coat protein (MS2 coat protein [1]) [nM] | apparent KD of MS2 coat protein (MS2 coat protein [2]) [nM]
CGGCUACAUGAGGAUCACCCAUGUCAGCCGAGGGCAGGAUAUGCGGUUCAUUCUCAAGCAGCAGAAGGGUCAAAAG [Onmabiat] | 12.8 | 8.83
AAAGAAUGAAGGCAGGAUAUGUGAAAAAAAACAUGAGGAUCACCCAUGUAAUAAAUGGGUACAAAACAGAAGGGCCAAGAAAUAA [SS 2 Tesla 2] | 170 | 398
GACAAACAUGAGGAUCACCCAUGUAGAAAUAUGGGAGGAUAUACACAGACGAAAGUCAAAGUAGAAGGCCUACAAG [77%, Mat - Mod of Eli - With 3 more C's] | 25.9 | 103
AUAUAAAUAAGCUAGGAUAUACUAAAGUAAACAUGAGGAUCACCCAUGUGAAGAAAGAAACUCAUGUAGAAGGAGCAUAUAUAUA [viburnum 3] | 45.6 | 185
AAUAUACAUGAGGAUCACCCAUGUUAGGUGGGUCAAGGAUAUCAAUAUAAAUAAAAAACUUGAGAAGGUGAAUAAA [JR_SS001_Sub019] | 133 | 155
AAAGAAUGAAGGCAGGAUAUGUGAAAAAAAACAUGAGGAUCACCCAUGUAAUAGAUGGUGAAAAGGCAGAAGGGCCAAGAAACAA [SS 2 Tesla 6] | 12.4 | 199
AAAGACAUGGUGUAGGAUAUAUUAAUAGUCACAUGAGGAUCACCCAUGUUCAUAUAUAUGAACGAGUAGAAGGACGAUGAAAAAA [SameState2 Malc#3] | 497 | 205
CGGAGACAUGAGGAUCACCCAUGUGAGAAGAGGCGAGGAUAUCGAAAGAAAGAAGAGAAACGAGAAGGCGCGAGGU [salish99-SS1-071] | 24.2 | 34.5
AGAAAUAAAAGGGAGGAUAUUCAAAAAGGGACAUGAGGAUCACCCAUGUAAAAGAAAAUAAAAUGGGAGAAGGCUCAAAAUAAAG [80%, More Helter Skelter 2] | 1130 | 748
AAAAGACAUGAGGAUCACCCAUGUCUUCGGACAUGAGGAUAUGUACAGACUUCGGUCUGUACAGAAGGCAUAAAAA [SS1 - 1062] | 21.1 | 82.2
AAGAAACAUGAGGAUCACCCAUGUACCCAAAAGGGAGGAUAUGCGAAAGAAAGAAAGAAAGCAGAAGGCCCAUGAA [Artaxerxes I Longhand] | 13.9 | 25.3
AAAAGACAUGAGGAUCACCCAUGUAAAGACAUAGGAGGAUAUGUCAUGAAAAAAGACUUGACAGAAGGCCUUUGUC [SS1 - 50] | 20.4 | 20.4
AAAAAACAUGAGGAUCACCCAUGUCAAAAGACGUGAGGAUAUGUACAGACUUCGGUCUGUACAGAAGGCACAAAAA [SS1 - 1031] | 17.2 | 40.3
AAAAAAUAAAAAAAGGAUAUAAAUGGUACAACAUGAGGAUCACCCAUGUAGUACCAAAAAAUAAAAAAGAAGGAAAAAUAAAAAA [SS2: MS2 22] | 20.8 | 23.7
AAAAAACAUGAGGAUCACCCAUGUAAUACAACAUCAGGAUAUUGGCUUUACUAUGUAUUACAAGAAGGGAUGAAAA [Same State 1.3c (Same State 1 - Omei 2 )] | 171 | 53.8
GAAAAACAUGAGGAUCACCCAUGUGAAAAUAUGGGAGGAUAUACGAAGUCGAAAGUCAAAGUAGAAGGCCUAAAAG [Garnet 32] | 43.6 | 155
AAAAAACAUGAGGAUCACCCAUGUCAAAAGACAUGAGGAUAUGUGUGGAAACCAUACUAUACAGAAGGCAUAAAAA [SS1 - 1008] | 105 | 159
AUGGUCAAGUGUGAGGAUAUCCAGGCUCCCACAUGAGGAUCACCCAUGUCUUAAAGGGCGUAAAGGGAGAAGGUACGAACGCCAC [Diatenat] | 35.6 | 46.8
AAAACACAUGAGGAUCACCCAUGUAAAAACAUGGGAGGAUAUGCUUGGAAAACAUGCUAUGCAGAAGGCUCAAGUG [SS1 - 12] | 72.6 | 46.4
AACAAUCUAUCUGAGGAUAUGUGUCGAAAGACAUGAGGAUCACCCAUGUAAAAACAUGAAAAGAUACAGAAGGCAGAUAGAUUGA [SS2: 1156] | 18.1 | 29.3
AAAAAACAUGAGGAUCACCCAUGUAGAAACAUGGGAGGAUAUACAAAGACGAAAGUCAAAGUAGAAGGCCUAAAAG [Mat - Same State 1 - Mod - D158] | 224 | 69.2
AAAACACAUGAGGAUCACCCAUGUAAAAACAAGAGAGGAUAUGCUUGGAAAACAUGCUAUGCAGAAGGCUCAAGUG [SS1 - 10] | 19.2 | 24.5
